Experimental data reported in patent US20050244868A1.

Legend:
[1] = target: CG55069 (Ten-M3), endogenous on human tumour, lymphoma and leukemia cell lines (human) (UniProt Q9P273); test: flow cytometry on CCRF-CEM cells, negative control antibody
[2] = target: CG55069 (Ten-M3), endogenous on human tumour, lymphoma and leukemia cell lines (human) (UniProt Q9P273); test: flow cytometry on MOLT-4 cells, negative control antibody
[3] = target: CG55069 (Ten-M3), endogenous on human tumour, lymphoma and leukemia cell lines (human) (UniProt Q9P273); test: flow cytometry on MV4-11 cells, negative control antibody
[4] = target: CG55069 (Ten-M3), endogenous on human tumour, lymphoma and leukemia cell lines (human) (UniProt Q9P273); test: flow cytometry on SU-DHL-4 cells, negative control antibody
[5] = target: CG55069 (Ten-M3), endogenous on human tumour, lymphoma and leukemia cell lines (human) (UniProt Q9P273); test: flow cytometry on SR cells, negative control antibody
[6] = target: CG55069 (Ten-M3), endogenous on human tumour, lymphoma and leukemia cell lines (human) (UniProt Q9P273); test: flow cytometry on Karpas 299 cells, negative control antibody
[7] = target: CG55069 (Ten-M3), endogenous on human tumour, lymphoma and leukemia cell lines (human) (UniProt Q9P273); test: flow cytometry on SUP-M2 cells, negative control antibody
[8] = target: CG55069 (Ten-M3), endogenous on human tumour, lymphoma and leukemia cell lines (human) (UniProt Q9P273); test: flow cytometry on DEL cells, negative control antibody

Chain of UniProt Q9P273 (Q9P273 other isoform, or with tags, fused parts or gaps): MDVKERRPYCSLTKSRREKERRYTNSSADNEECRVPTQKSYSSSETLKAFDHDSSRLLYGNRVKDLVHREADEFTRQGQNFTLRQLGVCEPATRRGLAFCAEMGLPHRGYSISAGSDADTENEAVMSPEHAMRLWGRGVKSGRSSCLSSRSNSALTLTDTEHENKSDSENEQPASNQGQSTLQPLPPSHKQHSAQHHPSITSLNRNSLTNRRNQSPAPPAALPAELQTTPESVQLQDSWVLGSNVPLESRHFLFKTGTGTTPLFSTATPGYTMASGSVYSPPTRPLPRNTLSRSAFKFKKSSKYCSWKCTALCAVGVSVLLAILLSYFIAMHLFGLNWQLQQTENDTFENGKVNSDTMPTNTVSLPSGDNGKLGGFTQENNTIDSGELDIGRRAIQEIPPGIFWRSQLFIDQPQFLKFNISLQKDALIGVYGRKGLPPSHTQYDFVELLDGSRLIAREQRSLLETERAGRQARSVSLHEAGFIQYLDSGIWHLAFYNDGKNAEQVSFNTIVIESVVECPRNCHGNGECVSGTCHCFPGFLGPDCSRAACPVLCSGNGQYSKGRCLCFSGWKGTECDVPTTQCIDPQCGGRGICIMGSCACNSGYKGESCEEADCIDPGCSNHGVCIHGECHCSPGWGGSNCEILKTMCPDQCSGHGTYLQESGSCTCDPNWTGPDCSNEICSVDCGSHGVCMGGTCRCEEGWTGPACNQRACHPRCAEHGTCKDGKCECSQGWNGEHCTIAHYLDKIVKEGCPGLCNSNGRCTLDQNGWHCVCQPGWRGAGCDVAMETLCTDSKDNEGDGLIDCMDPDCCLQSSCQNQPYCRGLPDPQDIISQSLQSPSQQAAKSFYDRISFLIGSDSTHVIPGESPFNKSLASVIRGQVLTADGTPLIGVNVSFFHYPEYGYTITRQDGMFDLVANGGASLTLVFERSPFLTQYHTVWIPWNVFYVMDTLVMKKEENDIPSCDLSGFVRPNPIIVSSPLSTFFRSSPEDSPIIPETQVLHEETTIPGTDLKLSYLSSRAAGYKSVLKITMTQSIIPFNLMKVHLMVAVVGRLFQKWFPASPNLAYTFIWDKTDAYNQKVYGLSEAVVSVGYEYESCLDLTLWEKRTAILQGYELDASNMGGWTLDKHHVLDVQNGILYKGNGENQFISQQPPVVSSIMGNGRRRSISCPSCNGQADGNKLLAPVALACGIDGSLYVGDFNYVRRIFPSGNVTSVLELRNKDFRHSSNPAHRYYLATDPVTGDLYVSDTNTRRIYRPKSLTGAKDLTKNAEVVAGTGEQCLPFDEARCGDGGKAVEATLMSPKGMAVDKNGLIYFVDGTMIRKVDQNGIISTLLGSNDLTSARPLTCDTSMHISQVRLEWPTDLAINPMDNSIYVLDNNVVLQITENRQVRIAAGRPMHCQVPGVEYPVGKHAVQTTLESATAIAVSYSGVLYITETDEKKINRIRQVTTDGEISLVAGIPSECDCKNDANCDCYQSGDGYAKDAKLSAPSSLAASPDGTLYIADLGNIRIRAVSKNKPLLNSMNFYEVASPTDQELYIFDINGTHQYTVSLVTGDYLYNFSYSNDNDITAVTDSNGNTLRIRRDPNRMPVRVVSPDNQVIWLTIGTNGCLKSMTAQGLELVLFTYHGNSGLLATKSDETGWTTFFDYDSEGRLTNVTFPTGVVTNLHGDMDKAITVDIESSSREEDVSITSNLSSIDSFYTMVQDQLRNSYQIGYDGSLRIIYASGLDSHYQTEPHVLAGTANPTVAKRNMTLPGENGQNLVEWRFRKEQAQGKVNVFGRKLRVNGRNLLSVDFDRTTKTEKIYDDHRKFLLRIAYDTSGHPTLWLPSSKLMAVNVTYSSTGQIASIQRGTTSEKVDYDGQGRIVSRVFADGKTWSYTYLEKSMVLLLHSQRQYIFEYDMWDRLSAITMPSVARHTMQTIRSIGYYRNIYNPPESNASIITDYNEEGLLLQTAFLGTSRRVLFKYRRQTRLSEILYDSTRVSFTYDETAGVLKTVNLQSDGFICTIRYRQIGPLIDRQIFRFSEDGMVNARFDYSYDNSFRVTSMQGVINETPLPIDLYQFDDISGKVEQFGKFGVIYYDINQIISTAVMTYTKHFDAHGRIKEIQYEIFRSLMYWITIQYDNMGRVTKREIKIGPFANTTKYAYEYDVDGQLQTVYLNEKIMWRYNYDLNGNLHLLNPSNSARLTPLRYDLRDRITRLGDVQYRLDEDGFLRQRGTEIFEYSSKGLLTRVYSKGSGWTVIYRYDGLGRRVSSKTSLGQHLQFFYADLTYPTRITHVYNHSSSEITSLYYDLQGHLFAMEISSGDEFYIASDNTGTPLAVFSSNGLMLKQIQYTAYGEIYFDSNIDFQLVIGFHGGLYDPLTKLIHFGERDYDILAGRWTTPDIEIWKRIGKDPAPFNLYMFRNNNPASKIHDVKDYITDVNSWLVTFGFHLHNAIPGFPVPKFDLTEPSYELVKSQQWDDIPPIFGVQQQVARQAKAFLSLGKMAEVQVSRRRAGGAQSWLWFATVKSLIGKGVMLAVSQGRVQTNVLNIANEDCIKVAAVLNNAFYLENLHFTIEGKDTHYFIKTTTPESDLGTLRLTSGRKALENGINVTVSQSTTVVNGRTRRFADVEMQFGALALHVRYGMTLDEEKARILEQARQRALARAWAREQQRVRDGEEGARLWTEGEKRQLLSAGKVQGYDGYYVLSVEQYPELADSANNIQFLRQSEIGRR

Rabbit negative (control antibody) showed a Geo Mean Ratio [1] of 4.22, a Geo Mean Ratio [2] of 4.13 and a Geo Mean Ratio [3] of 90.7. It also gave a Geo Mean Ratio [4] of 2.38, a Geo Mean Ratio [5] of 4.29 and a Geo Mean Ratio [6] of 5.08. The Geo Mean Ratio [7] was 6.13 and the Geo Mean Ratio [8] was 7.41.
